# Values of other authors as cited in publication PMC3433420.
# What was measured:
# Conditions in all cases: cited from earlier work
# PIK3R2-NC (Homo sapiens) = PIK3R2-NC (Homo sapiens) (UniProt O00459)
# TNS3 (Homo sapiens) = TNS3 (Homo sapiens) (UniProt Q68CZ2)
# ABL2 (Homo sapiens) = ABL2 (Homo sapiens) (UniProt P42684)
# PIK3R3-NC (Homo sapiens) = PIK3R3-NC (Homo sapiens) (UniProt Q92569)
# VAV3 (Homo sapiens) = VAV3 (Homo sapiens) (UniProt Q9UKW4)
# SHC3 (Homo sapiens) = SHC3 (Homo sapiens) (UniProt Q92529)
# NCK1 (Homo sapiens) = NCK1 (Homo sapiens) (UniProt P16333)
# SHC3 (Homo sapiens), sequence (Q92529 494-594): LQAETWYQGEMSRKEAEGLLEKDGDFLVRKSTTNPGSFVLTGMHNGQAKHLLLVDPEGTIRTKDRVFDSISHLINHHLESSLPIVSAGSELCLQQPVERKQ
# VAV3 (Homo sapiens), sequence (Q9UKW4 667-771): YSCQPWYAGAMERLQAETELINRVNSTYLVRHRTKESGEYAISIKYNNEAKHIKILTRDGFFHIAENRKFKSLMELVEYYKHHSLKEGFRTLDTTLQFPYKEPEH
# PIK3R2-NC (Homo sapiens), sequence (O00459 325-721): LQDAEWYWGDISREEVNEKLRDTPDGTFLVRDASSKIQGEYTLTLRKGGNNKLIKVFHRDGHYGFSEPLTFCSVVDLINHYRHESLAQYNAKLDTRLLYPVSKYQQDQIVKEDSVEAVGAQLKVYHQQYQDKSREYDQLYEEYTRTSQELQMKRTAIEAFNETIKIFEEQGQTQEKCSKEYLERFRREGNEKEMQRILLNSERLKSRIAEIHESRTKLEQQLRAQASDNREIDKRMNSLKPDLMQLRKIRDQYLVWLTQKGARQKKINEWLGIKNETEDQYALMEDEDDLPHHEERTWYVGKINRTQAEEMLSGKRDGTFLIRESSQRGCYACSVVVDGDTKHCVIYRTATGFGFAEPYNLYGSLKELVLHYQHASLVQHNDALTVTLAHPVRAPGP
# TNS3 (Homo sapiens), sequence (Q68CZ2 1167-1287): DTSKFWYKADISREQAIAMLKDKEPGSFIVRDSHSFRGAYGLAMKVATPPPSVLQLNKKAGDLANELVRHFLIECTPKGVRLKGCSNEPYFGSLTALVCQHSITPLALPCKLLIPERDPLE
# ABL2 (Homo sapiens), sequence (P42684 168-268): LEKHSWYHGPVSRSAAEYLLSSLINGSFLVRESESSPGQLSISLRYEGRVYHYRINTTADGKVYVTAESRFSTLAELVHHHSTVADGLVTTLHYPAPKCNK
substance,measurement,setting,value
…pYEEMRAFQ,apparent Kd (screen),PIK3R2-NC (Homo sapiens),86 nM
same,apparent Kd (screen),TNS3 (Homo sapiens),639 nM
same,apparent Kd (screen),ABL2 (Homo sapiens),44 nM
…pYLIPQQGFd,apparent Kd (screen),PIK3R3-NC (Homo sapiens),204 nM
…pYLVPQQGF,apparent Kd (screen),VAV3 (Homo sapiens),2000 nM
…pYWDQDPPE,apparent Kd (screen),SHC3 (Homo sapiens),1710 nM
same,apparent Kd (screen),NCK1 (Homo sapiens),2000 nM
